Data reported in article PMC6687201, “Atg11 tethers Atg9 vesicles to initiate selective autophagy” (PLoS Biology, 2019).

T1: HA-tagged Atg9 (S. cerevisiae, UniProt Q12142 1-997)
T1 construct: Atg9, transmembrane autophagy protein, yeast; also called HA-Atg9; source: yeast cells expressing HA-tagged Atg9, in lysate
T1 sequence (looked up): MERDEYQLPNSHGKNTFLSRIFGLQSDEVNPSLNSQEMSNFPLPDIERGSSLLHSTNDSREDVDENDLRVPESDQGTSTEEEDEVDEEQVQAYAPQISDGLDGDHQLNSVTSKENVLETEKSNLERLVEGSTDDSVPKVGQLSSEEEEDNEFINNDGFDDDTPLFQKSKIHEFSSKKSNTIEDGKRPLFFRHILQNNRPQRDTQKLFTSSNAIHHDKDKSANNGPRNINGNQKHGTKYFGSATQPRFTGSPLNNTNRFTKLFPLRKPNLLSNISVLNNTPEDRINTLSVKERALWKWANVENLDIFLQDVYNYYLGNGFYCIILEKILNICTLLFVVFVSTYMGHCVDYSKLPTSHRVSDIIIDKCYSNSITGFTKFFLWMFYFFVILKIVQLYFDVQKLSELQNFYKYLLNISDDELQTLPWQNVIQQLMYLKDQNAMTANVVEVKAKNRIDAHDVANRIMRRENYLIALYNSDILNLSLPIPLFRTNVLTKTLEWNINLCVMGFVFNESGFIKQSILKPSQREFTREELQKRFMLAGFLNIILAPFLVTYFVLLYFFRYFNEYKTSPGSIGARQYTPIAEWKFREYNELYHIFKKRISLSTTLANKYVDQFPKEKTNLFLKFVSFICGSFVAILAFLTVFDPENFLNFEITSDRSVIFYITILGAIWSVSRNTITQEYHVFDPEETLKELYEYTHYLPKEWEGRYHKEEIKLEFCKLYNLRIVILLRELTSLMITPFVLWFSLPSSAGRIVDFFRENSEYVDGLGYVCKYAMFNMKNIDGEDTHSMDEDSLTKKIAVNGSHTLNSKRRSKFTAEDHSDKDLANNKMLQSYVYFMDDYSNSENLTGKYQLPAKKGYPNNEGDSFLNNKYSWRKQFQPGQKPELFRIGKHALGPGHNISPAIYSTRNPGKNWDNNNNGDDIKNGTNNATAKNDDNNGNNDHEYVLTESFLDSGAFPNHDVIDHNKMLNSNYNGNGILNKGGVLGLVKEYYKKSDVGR

T2: Atg9^core reconstituted in proteoliposomes (yeast, UniProt Q12142 281-779)
T2 sequence (looked up): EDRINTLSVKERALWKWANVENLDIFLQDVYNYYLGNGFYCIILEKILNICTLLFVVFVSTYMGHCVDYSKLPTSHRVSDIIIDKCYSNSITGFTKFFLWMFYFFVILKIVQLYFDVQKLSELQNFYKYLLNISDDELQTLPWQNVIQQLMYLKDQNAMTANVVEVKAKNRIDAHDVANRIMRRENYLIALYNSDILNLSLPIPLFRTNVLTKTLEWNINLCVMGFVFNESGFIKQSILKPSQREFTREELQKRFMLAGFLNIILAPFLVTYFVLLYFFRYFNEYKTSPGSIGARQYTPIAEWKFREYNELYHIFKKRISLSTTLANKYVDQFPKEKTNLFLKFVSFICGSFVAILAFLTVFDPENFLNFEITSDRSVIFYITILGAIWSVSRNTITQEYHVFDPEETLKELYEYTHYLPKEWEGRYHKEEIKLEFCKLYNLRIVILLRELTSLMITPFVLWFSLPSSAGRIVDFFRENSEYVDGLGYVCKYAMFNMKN

T3: recombinant purified Atg11 (Atg11-His6) (yeast, UniProt Q12527 1-1178, Atto565 label in the GUV experiments)
T3 construct: N-terminal residual glycine-proline from PreScission protease digestion; Atg11, yeast; expressed from pCoofy37-Atg11; measured molecular weight 136 kDa; also called His-tagged Atg11; Atg11^Atto565; source: E. coli BL21 (DE3), coexpressed with chaperones from pG-KJE8, purified (Ni-NTA, PreScission digestion, gel filtration); not shown: His6, C-terminal, kept
T3 sequence: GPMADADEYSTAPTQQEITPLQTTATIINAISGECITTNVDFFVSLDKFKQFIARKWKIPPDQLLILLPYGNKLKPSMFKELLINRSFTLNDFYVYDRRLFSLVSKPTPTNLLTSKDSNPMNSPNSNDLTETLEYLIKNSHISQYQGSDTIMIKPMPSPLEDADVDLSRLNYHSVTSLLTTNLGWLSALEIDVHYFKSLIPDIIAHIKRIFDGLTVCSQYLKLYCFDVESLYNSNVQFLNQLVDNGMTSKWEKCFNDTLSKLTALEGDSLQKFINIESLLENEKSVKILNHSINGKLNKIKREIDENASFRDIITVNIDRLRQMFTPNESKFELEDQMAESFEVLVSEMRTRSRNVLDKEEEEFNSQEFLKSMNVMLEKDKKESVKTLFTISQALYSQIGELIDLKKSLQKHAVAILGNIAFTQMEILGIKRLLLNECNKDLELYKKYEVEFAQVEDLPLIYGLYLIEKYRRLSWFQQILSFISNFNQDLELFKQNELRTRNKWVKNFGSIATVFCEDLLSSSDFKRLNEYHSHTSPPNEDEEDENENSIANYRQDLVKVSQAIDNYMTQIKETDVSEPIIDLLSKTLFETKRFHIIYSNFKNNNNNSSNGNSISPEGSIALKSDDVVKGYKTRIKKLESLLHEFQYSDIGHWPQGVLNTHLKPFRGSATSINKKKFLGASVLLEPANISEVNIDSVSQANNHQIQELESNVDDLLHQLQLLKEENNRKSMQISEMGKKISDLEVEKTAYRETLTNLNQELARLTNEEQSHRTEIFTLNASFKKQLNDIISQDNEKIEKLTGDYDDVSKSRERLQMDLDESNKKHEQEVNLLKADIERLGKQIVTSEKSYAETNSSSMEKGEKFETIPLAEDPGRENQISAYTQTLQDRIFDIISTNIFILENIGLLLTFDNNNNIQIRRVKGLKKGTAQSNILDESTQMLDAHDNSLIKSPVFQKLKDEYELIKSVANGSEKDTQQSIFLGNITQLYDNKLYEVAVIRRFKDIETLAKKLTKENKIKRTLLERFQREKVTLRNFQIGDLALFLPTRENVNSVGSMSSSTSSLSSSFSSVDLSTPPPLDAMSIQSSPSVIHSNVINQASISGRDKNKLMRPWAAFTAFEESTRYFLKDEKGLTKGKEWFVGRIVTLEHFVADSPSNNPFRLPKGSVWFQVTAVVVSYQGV


Columns and labels:
HA-tagged Atg9 = biological target: T1, HA-tagged Atg9; test: co-IP; competition: purified Atg17 (0, 1, 4 μM) added to lysates of nonstarved cells; IP of Atg11-myc, HA-Atg9 detected by blot; conditions: one partner purified
[1] = biological target: T2, Atg9^core reconstituted in …; test: cell-based or functional assay
[2] = biological target: T2, Atg9^core reconstituted in …; test: co-floatation with proteoliposomes; competition: Atg11 and Atg17 coincubated with Atg9-PLs at different stoichiometric ratios (Atg11 kept constant); floated fraction on SDS-PAGE, amounts from band intensities; conditions: both partners purified
[3] = biological target: T3, recombinant purified Atg11 (Atg11-His6); test: pull-down; 10 μg recombinant GST-tagged bait coupled to Glutathione-resin, with recombinant Atg11; SDS-PAGE; conditions: both partners purified

Row | molar excess of Atg17 over Atg11 for equal binding to Atg9 (HA-tagged Atg9) | hydrodynamic radius of Atg9 vesicles against control SUVs in the presence of Atg17 (dynamic light scattering; vesicle tethering) [1] | molar excess of Atg17 over Atg11 for similar recovery of both [2] | binding result [3] | Binder
1 | 25 fold | 2 fold | 25 fold | – | recombinant purified Atg17 (natural protein, yeast, UniProt Q06410 1-417, looked up, Atg17, scaffolding protein of nonselective autophagy, yeast) MNEADVTKFVNNARKTLTDAQLLCSSANLRIVDIKKKLSSWQLSISKLNFLIVGLRQQGKFLYTILKEGIGTKLIQKQWNQAVLVVLVDEMKYWQYEITSKVQRLDGIVNELSISEKDDTDPSKLGDYISRDNVNLLNDKLKEVPVIERQIENIKLQYENMVRKVNKELIDTKLTDVTQKFQSKFGIDNLMETNVAEQFSRELTDLEKDLAEIMNSLTQHFDKTLLLQDKKIDNDEREELFKVVQGDDKELYNIFKTLHEVIDDVDKTILNLGQFLQAKIKEKTELHSEVSEIINDFNRNLEYLLIFKDISNLIDSFKNSCTQDIQTTKELCEFYDNFEESYGNLVLEAKRRKDVANRMKTILKDCEKQLQNLDAQDQEERQNFIAENGTYLPETIWPGKIDDFSSLYTLNYNVKNP
2 | – | – | – | binds | GST-tagged phosphomimetic Atg29 (Atg29^SD) (natural protein, yeast, UniProt Q12092 1-213, looked up, Atg29, yeast, phosphomimetic variant; also called GST-Atg29^SD; Atg29^(S197D, S199D, S201D); source: recombinant, purified) MIMNSTNTVVYIKVKGRRPQGFLDPPKFEWNGTKERQLWTMVSNLNYSQDQIDWQNLSKIFETPEFFLKKRTYKLFAEHLELLQLQLEKKRDLEKYSNDQVNEGMSDLIHKYTPTLQNDNLLNVSASPLTTERQDSEEVETEVTNEALQHLQTSKILNIHKKTSDSENKPNDKLDKDGINKEMECGSSDDDLSSSLDVDKDALEEALMDRLQF

More lines, now with the values behind:

Row | Binder | molar excess of Atg17 over Atg11 for equal binding to Atg9 (HA-tagged Atg9) | hydrodynamic radius of Atg9 vesicles against control SUVs in the presence of Atg17 (dynamic light scattering; vesicle tethering) [1] | molar excess of Atg17 over Atg11 for similar recovery of both [2] | binding result [3]
3 | GST-tagged wild-type Atg29 (natural protein, yeast, UniProt Q12092 1-213, looked up, Atg29, yeast; also called GST-Atg29^WT; Atg29^WT) MIMNSTNTVVYIKVKGRRPQGFLDPPKFEWNGTKERQLWTMVSNLNYSQDQIDWQNLSKIFETPEFFLKKRTYKLFAEHLELLQLQLEKKRDLEKYSNDQVNEGMSDLIHKYTPTLQNDNLLNVSASPLTTERQDSEEVETEVTNEALQHLQTSKILNIHKKTSDSENKPNDKLDKDGINKEMECGSSDDDLSSSLSVSKSALEEALMDRLQF | – | – | – | binds
4 | GST-Atg31-Atg29^SD subcomplex (complex, yeast, Atg31, yeast; Atg29, yeast, phosphomimetic variant; also called GST-tagged Atg31 (31) and Atg29^SD (29^SD); source: recombinant, coexpressed and purified as subcomplex) chain 1: MNVTVTVYDKNVKYRLEENIKNNKGPSNDDQPAYNNESKSTDGSDYAMFPTNIKYIFEDNNDELVDSSDAALTAGIDKVGDELENVIIVQLDESGSLEDITLISDQYELLSHRTNSLSLEENQMRTLSSHGDDKSNDEEEELSVDSDRFRVDSDIELDVISQFCDLSPFLRDLSLNDLIKLYVTQNEQLQMLSNSV chain 2: MIMNSTNTVVYIKVKGRRPQGFLDPPKFEWNGTKERQLWTMVSNLNYSQDQIDWQNLSKIFETPEFFLKKRTYKLFAEHLELLQLQLEKKRDLEKYSNDQVNEGMSDLIHKYTPTLQNDNLLNVSASPLTTERQDSEEVETEVTNEALQHLQTSKILNIHKKTSDSENKPNDKLDKDGINKEMECGSSDDDLSSSLDVDKDALEEALMDRLQF | – | – | – | binds
5 | GST-Atg31-Atg29^WT subcomplex (complex, yeast, Atg31, yeast; Atg29, yeast; also called GST-tagged Atg31 (31) and Atg29^WT (29); source: recombinant, coexpressed and purified as subcomplex) chain 1: MNVTVTVYDKNVKYRLEENIKNNKGPSNDDQPAYNNESKSTDGSDYAMFPTNIKYIFEDNNDELVDSSDAALTAGIDKVGDELENVIIVQLDESGSLEDITLISDQYELLSHRTNSLSLEENQMRTLSSHGDDKSNDEEEELSVDSDRFRVDSDIELDVISQFCDLSPFLRDLSLNDLIKLYVTQNEQLQMLSNSV chain 2: MIMNSTNTVVYIKVKGRRPQGFLDPPKFEWNGTKERQLWTMVSNLNYSQDQIDWQNLSKIFETPEFFLKKRTYKLFAEHLELLQLQLEKKRDLEKYSNDQVNEGMSDLIHKYTPTLQNDNLLNVSASPLTTERQDSEEVETEVTNEALQHLQTSKILNIHKKTSDSENKPNDKLDKDGINKEMECGSSDDDLSSSLSVSKSALEEALMDRLQF | – | – | – | binds
